Test results published in the DeepSol protein solubility set.

assay: soluble on expression in E. coli; label from the status in PepcDB or PDB records

Sequence | soluble on expression in E. coli
AQGLQARFQLLRVLEVPADDAVAKGLEISFGEPVALIERLGLADEEPISVGSGYFPLKRFPDFLEPENIKILQEQQSISQFLQQVYGCDHIRRSTCVSARLVQPQDAKWLQIPLNQPILLAESVNVDQAGNVIEYGVTRLRGDRME | not soluble
AQGRQPRTETLHAERRAAGAWLAKRMGLEDSAPVYFLQRRRWVDERPVLIELIALDAGWCPGLLDHDLDTSLMSLLRERFGLQPTRCQLAMHPTALNAAQAEPLQLAPGSPALYLERLSYAEGQRVVEFDQEFWRPDALEIVLDAAYPGA | soluble
AQKSVKISDDISITQLSDKVYTYVSLAEIEGWGMVPSNGMIVINNHQAALLDTPINDAQTEMLVNWVTDSLHAKVTTFIPNHWHGDCIGGLGYLQRKGVQSYANQMTIDLAKEKGLPVPEHGFTDSLTVSLDGMPLQCYYLGGGHATDNIVVWLPTENILFGGCMLKDNQATSIGNISDADVTAWPKTLDKVKAKFPSARYVVPGHGDYGGTELIEHTKQIVNQYIESTSKP | soluble
ARVDQTPRIATKETGESLTINCVLRDTACALDSTNWYRTKLGSTKEQTISIGGRYSETVDEGSNSASLTIRDLRVEDSGTYKCKAYRRCAFNTGVGYKEGAGTVLTVK | soluble
ASDHQTQAGKPQPLNPKIIIFEQENFQGHSHELSGPCPNLKETGMEKAGSVLVQAGPWVGYEQANCKGEQFVFEKGEYPRWDSWTSSRRTDSLSSLRPIKVDSQEH | soluble
ASMTGGQQMGRGSGPMLIEFNIPVDLKLVEQQNPKVKLGGRYTPMDGASVHKMALLVPFRDRFEELLQFVPHMTAFLKRQGVAHHIFVLNQVDRFRFNRASLINVGFQFASDVYDYIAMHDVDLLPLNDNLLYEYPSSLGPLHIAGPKLHPKYHYDNFVGGILLVRREHFKQMNGMSNQYWGWGLEDDEFFVRIRDAGLQVTRPQNIKTGTNDTFSHIHNRYHRKRDTQKCFNQKEMTRKRDHKTGLDNVKYKILKVHEMLIDQVPVTILNILLDCDVNKTPWCDCS | soluble
ASVKAVGRVCYSALPSQAHDTLDLIDEGGPFPYSQDGVVFQNREGLLPAHSTGYYHEYTVITPGSPTRGARRIITGQQWQEDYYTADHYASFRRVDFAC | soluble
ATADPGVRAMDYQQATDVVIARGLSQRGVPFSWAGGGINGPTRGTGTGANTVGFDASGLMQYAYAGAGIKLPRSSGAMYRVGQKILPQQARKGDLIFYGPEGTQSVAMYLGNNQMLEVGDVVQVSPVRTAGMAPYMVRVLGT | soluble
ATGWNNALGHTAANEEPQEEASSQTTSIHFPLDYKQWQEEQDINLLNRALEEAKFNQRQAAELLGLSYHQLRGMVRKYGLVGQS | soluble
AVVSTDEYVTRTNIYYHAGSSRLLAVGHPYYAIKKQDSNKIAVPKVSGLQYRVFRVKLPDPNKFGFPDTSFYDPASQRLVWACTGVEVGRGQPLGVGISGHPLLNKLDDTENSNKYVGNSGTDNRECISMDYKQTQLCLIGCRPPIGEHWGKGTPSNANQVKAGECPPLELLNTVLQDGDMVDTGFGAMDFTTLQANKSDVPLDICSSICKYPDYLKMVSEPYGDMLFFYLRREQMFVRHLFNRAGTVGETVPADLYIKGTTGTLPSTSYFPTPSGSMVTSDAQIFNKPYWLQRAQGHNNGICWSNQLFVTVVDTTRSTNMSVCSAVSSSDSTYKNDNFKEYLRHGEEYDLQFIFQLCKITLTADVMTYIHSMNPSILEDWNGGSGGDPLKNYTFWEVDLKEKFSADLDQFPLGRKFLLQAGL | soluble
CPEIEAQGNECLKEYGGDVGFGFCAPRIFPTICYTRCRENKGAKGGRCRWGQGSNVKCLCDFCGDTPQ | soluble
CRYVARNGFQGVIVQCETSDGDDIPAEDDREGPPLSRGVFYNDGYDERQGKLILGIFPTGQCPSPIGNGSGTATDVTGEPEKTFSGRGFGRTSPTGMMSSLGAQREMTGLYDLPTTNGNDGEKPADPNGEGRGFTNKNAGTSCTEANAHT | soluble
CSLIPDYQRPEAPVAAAYPQGQAYGQNTGAAAVPAADIGWREFFRDPQLQQLIGVALENNRDLRVAALNVEAFRAQYRIQRADLFPRIGVDGSGTRQRLPGDLSTTGSPAISSQYGVTLGTTAWELDLFGRLRSLRDQALEQYLATEQAQRSAQTTLVASVATAYLTLKADQAQLQLTKDTLGTYQKSFDLTQRSYDVGVASALDLRQAQTAVEGARATLAQYTRLVAQDQNALVLLLGSGIPANLPQGLGLDQTLLTEVPAGLPSDLLQRRPDILEAEHQLMAANASIGAARAAFFPSISLTANAGTMSRQLSGLFDAGSGSWLFQPSINLPIFTAGSLRASLDYAKIQKDINVAQYEKAIQTAFQEVADGLAARGTFTEQLQAQRDLVKASDEYYQLADKRYRTGVDNYLTLLDAQRSLFTAQQQLITDRLNQLTSEVNLYKALGGGWNQQTVTQQQTAKKEDPQAHHHHHH | soluble
DAFTDQKIRQRYADLPGELHIIELEKDKNGLGLSLAGNKDRSRMSIFVVGINPEGPAAADGRMRIGDELLEINNQILYGRSHQNASAIIKTAPSKVKLVFIRNEDAVNQMA | soluble
DEMVRFNPKKMSLKKEQVIKIIKIGAPAGLQGVVFSVSNVCIQSAINGFGTKAIAGSSAALNYEYFTYYVINAFNQTTVTFTSQNYGAKKLERCKKA | not soluble
DGDRLRQFLENNKKVLRFWCVWDERTTMYGDRRPYVLHYYLEDDSVEVLEINENNSGRDPFPVFLKRGPLPKVAVKTNTTLNPKFRKDQCYNAGDFRLGLFINVLGRDFYLHDADTFTKQWYKDNLGYTDEE | not soluble
DGYHLLQELGAIELAGDGEAAEAGGGGAAFRLTRTGQELAKLPVDPRIGRMILAAREQQCLAEMLIIAAALSVQDPRDRPMAEREAAESAHAKFADDKSEFLSFL | not soluble
DIKVTPGTSELVEQILALLSRYLSSYIHVLNKFISHLRRVATLRFERTTLIKFVKKLRFYNDSVLSYNASEFINEGKNELDPEADSFDKVILPIASMFVKSVETFDLLNYYLTQSLQKEILSKTLNEDLTLTAESILAIDDTYNHFVKFSQWMIESLRIGSNLLDLEVVQFAIKSADEDGTNIGETDNIFLQEILPVNSEEEFQTLSAAWHSILDGKLSALDEEFDVVATKWHD | soluble
DIQMTQSPASLSASVGETVTITCRASENIYSYLAWYQQKQGKSPQLLVYNAKTLAEGVPSRFSGSGSGTQFSLKINSLQPEDFGSYYCQHHYGTPFTFGSGTKLEIKRHHHHHH | soluble
DIQMTQSPSSLSASVGDRVTITCQASQDITNHLNWYQQKPGKAPKLLIYDASNLETGVPSRFSGRGSGTHFTFTISSLQPADIATYYCQEYDYLPQTFGGGTKVEIK | soluble
DIVMTQSPDSLAVSPGERATINCKSSQNLLDSSFDTNTLAWYQQKPGQPPKLLIYWASSRESGVPDRFSGSGSGTDFTLTISSLQAEDVAVYYCQQYYSTPPTFGGGTKVEIKR | soluble
DKFNQFINRVLSHEGGYANHPKDPGGETNWGITKRTAQANGYNGSMRAMTREQAISIYRKAFWERYRADQMPEAVAFQFFDACVNHGYGNAARMLQRAAGVPDDGVIGAVSLKAINSLPENDLLLRFNAERLVFYTKLGTFTSFGKGWVRRVAQN | not soluble
DKKQLVLVLCASGATSSMLANAITKGAKQEGVNVESIAMAYGQHKDVIADYDLIILAPQMASMYEELKADCASKGTKSATTTGKEYVKLTRDPVGALKFALDIINE | not soluble
DKSPSSLTLALGKNIAGRPTVADLARMPHLLVAGTTGSGKSVAVNAMVLSLLFKASHNDLRMLMIDPKMLELSVYQGIPHLLAPVVTDMKEAANGLRWCVAEMERRYKLMSAVGVRNLAGFNKKVKDAEEAGQPLMDPLFKPNPDLSEVPRPLQKLPFIVIFIDEFADMMMIVGKKVEELIARLAQKARAAGIHLILATQRPSV | not soluble
DLADRFAELERRYDARLGVYVPATGTTAAIEYRADERFAFCSTFKAPLVAAVLHQNPLTHLDKLITYTSDDIRSISPVAQQHVQTGMTIGQLCDAAIRYSDGTAANLLLADLGGPGGGTAAFTGYLRSLGDTVSRLDAEEPELNRDPPGDERDTTTPHAIALVLQQLVLGNALPPDKRALLTDWMARNTTGAKRIRAGFPADWKVIDKTGTGDYGRANDIAVVWSPTGVPYVVAVMSDRAGGGYDAEPREALLAEAATCVAGVLA | soluble
